According to patent publication US20190112392A1:
Numbering of substitutions follows the chain as printed. Blank lines part the entries; values can stand above or below the binder they belong to.

Columns and labels:
[1] = target: human TCR(2XN9)/CD3 expressed on CHO-K1 cells (human); assay: flow cytometry, CHO-K1 human TCR(2XN9)/CD3 cells
[2] = target: human TCR(2IAN)/CD3 expressed on HEK293H cells (human); assay: flow cytometry, HEK293H human TCR(2IAN)/CD3 cells
[3] = target: soluble recombinant human TCR alpha/beta (2XN9)-zipper protein (human); assay: ELISA, coated soluble human TCR(2XN9)-zipper
[4] = target: EGFR and CEACAM5 co-expressed on LS174T and LoVo cells (UniProt P00533); assay: cell-based or functional assay
[5] = target: EGFR and CEACAM5 co-expressed on LS174T and LoVo cells (UniProt P00533); assay: flow cytometry, LS174T cells
[6] = target: EGFR and CEACAM5 co-expressed on LS174T and LoVo cells (UniProt P00533); assay: flow cytometry, LoVo cells
[7] = target: EGFR and CEACAM5 co-expressed on LS174T and LoVo cells (UniProt P00533); assay: flow cytometry, LS174T cells; LS174T cells
[8] = target: soluble recombinant human TCR alpha/beta (2XN9)-zipper protein (human); assay: BLI (Octet RED384), immobilized human sTCR(2XN9)-zipper, 1:1 model

B3: T0170061G01 (VHH, not shown: small tags and cut ends)
VHH: EVQLVESGGGLVQPGGSLRLSCAASGEIGRINFYRWYRQAPGNQREVVATITIADKTDYADSAKGRFTISRDESRNMVYLQMSSLKPEDTAVYFCHAGSRLYPYDYWGQGTQVTVSS
EC50 [2]: > 100 nM
MCF at 1 µM [2]: 10000 MCF
EC50 [1]: 31 nM
EC50 [3]: 52 nM

B9: T0170055A02 (VHH, not shown: small tags and cut ends)
VHH: EVQLVESGGGLVQPGGSLRLSCAASGDVHKINILGWYRQAPAKEREMVAHITIGDATDYADSAKGRFTISRDEAKNMVYLQMNSLKPEDTAVYFCRAYSRIYPYNYWGQGTLVTVSS
MCF at 1 µM [2]: 91200 MCF
kon [8]: 49000 M⁻¹ s⁻¹

B10: T0170056G05 (VHH, not shown: small tags and cut ends)
VHH: B9 VHH with A23V, I33F, A42G, M47K, T52S, A56Q, A74S, Y98F, N105D
MCF at 1 µM [2]: 86500 MCF
kon [8]: 50000 M⁻¹ s⁻¹

B11: T0170068G05 (VHH, not shown: small tags and cut ends)
VHH: VQLVEESGGGLVQPGGSLRLSCITSGETFKINIWGWYRQAPGKQRELVASLTIGGATNYADSVKGRFTISEDSAKNTVYLQMNSLKPEDTAVYFCNAKSRIYPYDYWGRGTQVTVSS
EC50 [2]: > 100 nM
MCF at 1 µM [2]: 31200 MCF
EC50 [1]: 12 nM
EC50 [3]: 16 nM

B12: T017000038 (bispecific antibody)
chain: EVQLVESGGGLVQPGGSLRLSCAASGEIGRINFYRWYRQAPGNQREVVATITIADKTDYADSAKGRFTISRDESRNMVYLQMSSLKPEDTAVYFCHAGSRLYPYDYWGQGTLVTVSSGGGGSGGGGSGGGGSGGGGSGGGGSGGGGSGGGGSEVQLVESGGGLVQPGGSLRLSCTFSGGTFSSYTMGWFRQAPGKEREFVAEVRWGGVTTYSNSLKDRFSISEDSVKNAVYLQMNSLKPEDTAVYYCAAVRQMYMTVVPDYWGQGTLVTVSSGAADYKDHDGDYKDHDIDYKDDDDKGAAHHHHHH
EC50 [1]: 17 nM

B13: T017000031 (bispecific antibody)
chain: EVQLVESGGGLVQPGGSLRLSCITSGETFKINIWGWYRQAPGKQRELVASLTIGGATNYADSVKGRFTISEDSAKNTVYLQMNSLKPEDTAVYFCNAKSRLYPYDYWGQGTLVTVSSGGGGSGGGGSGGGGSGGGGSGGGGSGGGGSGGGGSEVQLVESGGGLVQPGGSLRLSCTFSGGTFSSYTMGWFRQAPGKEREFVAEVRWGGVTTYSNSLKDRFSISEDSVKNAVYLQMNSLKPEDTAVYYCAAVRQMYMTVVPDYWGQGTLVTVSSGAADYKDHDGDYKDHDIDYKDDDDKGAAHHHHHH
EC50 [1]: 20 nM

Second part, led by results:

EC50 [1]: 17 nM
B1: T017000042 (bispecific antibody)
chain: EVQLVESGGGLVQPGGSLRLSCAASGDVHKINILGWYRQAPAKEREMVAHITIGDATDYADSAKGRFTISRDEAKNMVYLQMNSLKPEDTAVYFCRAYSRIYPYNYWGQGTLVTVSSGGGGSGGGGSGGGGSGGGGSGGGGSGGGGSGGGGSEVQLVESGGGLVQPGGSLRLSCTFSGGTFSSYTMGWFRQAPGKEREFVAEVRWGGVTTYSNSLKDRFSISEDSVKNAVYLQMNSLKPEDTAVYYCAAVRQMYMTVVPDYWGQGTLVTVSSGAADYKDHDGDYKDHDIDYKDDDDKGAAHHHHHH

EC50 [1]: 16 nM
B2: T017000074 (bispecific antibody)
chain: B1 chain with A23V, I33F, A42G, M47K, T52S, A56Q, A74S, Y98F, N105D

EC50 [1]: 460 nM
B4: T017000051 (bispecific antibody)
chain: EVQLVESGGGLVQPGGSLRLSCTFSGGTFSSYTMGWFRQAPGKEREFVAEVRWGGVTTYSNSLKDRFSISEDSVKNAVYLQMNSLKPEDTAVYYCAAVRQMYMTVVPDYWGQGTLVTVSSGGGGSGGGGSGGGGSGGGGSGGGGSGGGGSGGGGSEVQLVESGGGLVQPGGSLRLSCAASGEIGRINFYRWYRQAPGNQREVVATITIADKTDYADSAKGRFTISRDESRNMVYLQMSSLKPEDTAVYFCHAGSRLYPYDYWGQGTLVTVSSGAADYKDHDGDYKDHDIDYKDDDDKGAAHHHHHH

Top [5]: 64600
EC50 [6]: 3.2 nM
Top [6]: 88600
EC50 [7]: 11 nM
B5: T017000107 (protein)
chain: EVQLVESGGGLVQAGGSLRLSCAASGRTFSSYVMGWFRQATGKEREFVATIAWDSGSTYYADSVKGRFTISRDNAKNTVHLQMNSLKPEDTAVYYCAASYNVYYNNYYYPISRDEYDYWGQGTLVTVSSGGGGSGGGGSGGGGSGGGGSGGGGSGGGGSGGGGSEVQLVESGGGSVQAGGSLRLSCAASGDTYGSYWMGWFRQAPGKEREGVAAINRGGGYTVYADSVKGRFTISRDTAKNTVYLQMNSLRPDDTADYYCAASGVLGGLHEDWFNYWGQGTLVTVSSGGGGSGGGGSGGGGSGGGGSGGGGSGGGGSGGGGSEVQLVESGGGLVQPGGSLRLSCVASGDVHKINFLGWYRQAPGKEREKVAHISIGDQTDYADSAKGRFTISRDESKNMVYLQMNSLKPEDTAVYFCRAFSRIYPYDYWGQGTLVTVSSGAADYKDHDGDYKDHDIDYKDDDDKGAAHHHHHH
IC50, xCELLigence human T cell mediated killing of LS174T cells, E:T 15, 30-40 h [4]: 10 nM
IC50, xCELLigence human T cell mediated killing of LS174T cells, E:T 15, 50-60 h [4]: 5.3 nM
IC50, xCELLigence human T cell mediated killing of LoVo cells, E:T 15, 30-40 h [4]: 0.3 nM
IC50, xCELLigence human T cell mediated killing of LoVo cells, E:T 15, 50-60 h [4]: 0.061 nM

EC50 [1]: 190 nM
B6: T017000068 (bispecific antibody)
chain: EVQLVESGGGLVQPGGSLRLSCTFSGGTFSSYTMGWFRQAPGKEREFVAEVRWGGVTTYSNSLKDRFSISEDSVKNAVYLQMNSLKPEDTAVYYCAAVRQMYMTVVPDYWGQGTLVTVSSGGGGSGGGGSGGGGSGGGGSGGGGSGGGGSGGGGSEVQLVESGGGLVQPGGSLRLSCITSGETFKINIWGWYRQAPGKQRELVASLTIGGATNYADSVKGRFTISEDSAKNTVYLQMNSLKPEDTAVYFCNAKSRLYPYDYWGQGTLVTVSSGAADYKDHDGDYKDHDIDYKDDDDKGAAHHHHHH

EC50 [1]: 110 nM
B7: T017000055 (bispecific antibody)
chain: EVQLVESGGGLVQPGGSLRLSCTFSGGTFSSYTMGWFRQAPGKEREFVAEVRWGGVTTYSNSLKDRFSISEDSVKNAVYLQMNSLKPEDTAVYYCAAVRQMYMTVVPDYWGQGTLVTVSSGGGGSGGGGSGGGGSGGGGSGGGGSGGGGSGGGGSEVQLVESGGGLVQPGGSLRLSCAASGDVHKINILGWYRQAPAKEREMVAHITIGDATDYADSAKGRFTISRDEAKNMVYLQMNSLKPEDTAVYFCRAYSRIYPYNYWGQGTLVTVSSGAADYKDHDGDYKDHDIDYKDDDDKGAAHHHHHH

EC50 [1]: 78 nM
B8: T017000076 (bispecific antibody)
chain: B7 chain with A178V, I188F, A197G, M202K, T207S, A211Q, A229S, Y253F, N260D
